Reference: paper PMC5291247
Where “and” joins values, the source holds several entries; their conditions need not be identical. Identical values can stand only once.

Tests used:
[1] = target: Vps75 from which native cysteine residues had been removed (yeast (S. cerevisiae in the introduction)) (UniProt P53853); assay: cross-linking; Vps75 titrated with H3-H4 at 200 mM NaCl, 20 mM HEPES pH 7.5; 30 min room temperature, 2 mM BS2G for 1 h, SDS-PAGE
[2] = target: Vps75 from which native cysteine residues had been removed (yeast (S. cerevisiae in the introduction)) (UniProt P53853); assay: SEC-MALS + cross-linking; partial DTSSP cross-linking at 200 mM NaCl, 20 mM HEPES pH 7.5 (Vps75 alone, or Vps75 dimers and H3-H4 dimers 1:1, 10 uM); SEC-MALS on Superdex 200 10/300 GL at 400 mM NaCl, 20 mM HEPES-KOH pH 7.5; fractions on SDS-PAGE with and without DTT
[3] = target: Vps75 from which native cysteine residues had been removed (yeast (S. cerevisiae in the introduction)) (UniProt P53853); assay: cross-linking; cross-linking analysis of Vps75 with Asf1 and H3-H4, SDS-PAGE (Supplementary Figure S4)

stoichiometry N [1]	stoichiometry N [2]	stoichiometry N (Vps75 monomers per H3-H4 dimer) [3]	Substance
4	4 and 2		Vps75 from which native cysteine residues had been removed (from UniProt P53853 1-264) (natural protein)
		2	histones H3–H4 from which native cysteine residues had been removed (from UniProt P84233 1-136; P62799 1-103) (complex)
